Source: doi:10.1101/2022.05.30.493996
pKd: −log10 of the molar value.

Molecular target: Gp57 (purified) (phage SECΦ27)
Experiment: ITC

Q: With “CapRel^SJ46 (purified, full-length) (enzyme)” as the substance, how does the pKd read?
A: 6.72
